Measurements taken from patent US20200024330A1.

B1: PGT-135 (antibody, V domains shown)
VH: QLQMQESGPGLVKPSETLSLSCTVSGDSIRGGEWGDKDYHWGWVRHSAGKGLEWIGSIHWRGTTHYKESLRRRVSMSIDTSRNWFSLRLASVTAADTAVYFCARHRHHDVFMLVPIAGWFDVWGPGVQVTVSS
VL: EIVMTQSPDTLSVSPGETVTLSCRASQNINKNLAWYQYKPGQSPRLVIFETYSKIAAFPARFVASGSGTEFTLTINNMQSEDVAVYYCQQYEEWPRTFGQGTKVDIK
B2: PGT-127 (antibody, V domains shown)
VH: QPQLQESGPGLVEASETLSLTCTVSGDSTGRCNYFWGWVRQPPGKGLEWIGSLSHCRSYYNTDWTYHNPSLKSRLTISLDTPKNQVFLRLTSVTAADTATYYCARFGGEVLVYRDWPKPAWVDLWGRGTLVVTVS
VL: QSALTQPPSASGSPGQSITISCTGTSNNFVSWYQQYPGKAPKLVIYEVNKRPSGVPDRFSGSKSGSTASLTVSGLQADDEGVYYCSSLVGNWDVIFGGGTKLTVL

Assays:
[1] = biological target: HIV-1 JR-CSF Env R419A (HIV-1 (isolate JR-CSF)) (UniProt P20871); test: cell-based or functional assay
[2] = biological target: HIV-1 JR-CSF Env N392Q (HIV-1 (isolate JR-CSF)) (UniProt P20871); test: cell-based or functional assay
[3] = biological target: HIV-1 JR-CSF Env L416A (HIV-1 (isolate JR-CSF)) (UniProt P20871); test: cell-based or functional assay
[4] = biological target: HIV-1 NL43 envelope glycoprotein (Env) (HIV-1); test: cell-based or functional assay
[5] = biological target: Env of the clade F HIV-1 pseudoviruses of the cross-clade 162-pseudovirus panel (n = 15); test: cell-based or functional assay
[6] = biological target: HIV-1 92BR020 envelope glycoprotein (Env) (HIV-1); test: cell-based or functional assay
[7] = biological target: HIV-1 JR-CSF Env S306A (HIV-1 JR-CSF) (UniProt P20871); test: cell-based or functional assay
[8] = biological target: HIV-1 JR-CSF Env I309A (HIV-1 JR-CSF) (UniProt P20871); test: cell-based or functional assay
[9] = biological target: HIV-1 JR-CSF Env T413A (HIV-1 (isolate JR-CSF)) (UniProt P20871); test: cell-based or functional assay
[10] = biological target: Env of the clade B HIV-1 pseudoviruses of the cross-clade 162-pseudovirus panel (n = 31); test: cell-based or functional assay
[11] = biological target: Env of all HIV-1 pseudoviruses of the cross-clade 162-pseudovirus panel (n = 162); test: cell-based or functional assay
[12] = biological target: HIV-1 MGRM-C-027 envelope glycoprotein (Env) (HIV-1); test: cell-based or functional assay
[13] = biological target: HIV-1 JR-CSF Env P313A (HIV-1 JR-CSF) (UniProt P20871); test: cell-based or functional assay
[14] = biological target: HIV-1 JR-CSF Env W395A (HIV-1 (isolate JR-CSF)) (UniProt P20871); test: cell-based or functional assay
[15] = biological target: HIV-1 JR-CSF Env N302A (HIV-1 JR-CSF) (UniProt P20871); test: cell-based or functional assay
[16] = biological target: HIV-1 JR-CSF Env F210A (HIV-1 JR-CSF) (UniProt P20871); test: cell-based or functional assay
[17] = biological target: HIV-1 93IN905 envelope glycoprotein (Env) (HIV-1); test: cell-based or functional assay
[18] = biological target: HIV-1 JR-CSF Env R350A (HIV-1 isolate JR-CSF) (UniProt P20871); test: cell-based or functional assay
[19] = biological target: HIV-1 JR-CSF Env I415A (HIV-1 (isolate JR-CSF)) (UniProt P20871); test: cell-based or functional assay
[20] = biological target: HIV-1 JR-CSF Env P299A (HIV-1 JR-CSF) (UniProt P20871); test: cell-based or functional assay
[21] = biological target: HIV-1 JR-CSF Env S199A (HIV-1 JR-CSF) (UniProt P20871); test: cell-based or functional assay
[22] = biological target: HIV-1 JR-CSF Env R304A (HIV-1 JR-CSF) (UniProt P20871); test: cell-based or functional assay
[23] = biological target: HIV-1 JR-CSF Env I424A (HIV-1 (isolate JR-CSF)) (UniProt P20871); test: cell-based or functional assay
[24] = biological target: HIV-1 JR-CSF Env N355A (HIV-1 isolate JR-CSF) (UniProt P20871); test: cell-based or functional assay
[25] = biological target: HIV-1 JR-CSF Env H330A (HIV-1 isolate JR-CSF) (UniProt P20871); test: cell-based or functional assay
[26] = biological target: HIV-1 JR-CSF Env G324A (HIV-1 isolate JR-CSF) (UniProt P20871); test: cell-based or functional assay
[27] = biological target: HIV-1 JR-CSF Env S387A (HIV-1 (isolate JR-CSF)) (UniProt P20871); test: cell-based or functional assay
[28] = biological target: HIV-1 JR-CSF Env I423A (HIV-1 (isolate JR-CSF)) (UniProt P20871); test: cell-based or functional assay
[29] = biological target: HIV-1 JR-CSF Env I420A (HIV-1 (isolate JR-CSF)) (UniProt P20871); test: cell-based or functional assay
[30] = biological target: HIV-1 JR-CSF Env T297A (HIV-1 JR-CSF) (UniProt P20871); test: cell-based or functional assay
[31] = biological target: HIV-1 Env of isolate MGRM-C-026 (HIV-1); test: cell-based or functional assay
[32] = biological target: HIV-1 JR-CSF Env I323A (HIV-1 isolate JR-CSF) (UniProt P20871); test: cell-based or functional assay
[33] = biological target: HIV-1 JR-CSF Env T341A (HIV-1 isolate JR-CSF) (UniProt P20871); test: cell-based or functional assay
[34] = biological target: Env of the clade C HIV-1 pseudoviruses of the cross-clade 162-pseudovirus panel (n = 27); test: cell-based or functional assay
[35] = biological target: JR-FL gp120 ΔV1/ΔV2 (HIV-1 (isolate JR-FL)); test: ELISA on coated gp120; EC50 by nonlinear regression
[36] = biological target: WT JR-FL gp120 (HIV-1 (isolate JR-FL)); test: as above
[37] = biological target: HIV-1 Env of isolate MGRM-A-004 (HIV-1); test: cell-based or functional assay
[38] = biological target: HIV-1 Env of isolate MGRM-AE-001 (HIV-1); test: cell-based or functional assay
[39] = biological target: HIV-1 Env of isolate MGRM-A-009 (HIV-1); test: cell-based or functional assay
[40] = biological target: HIV-1 Env of isolate MGRM-A-012 (HIV-1); test: cell-based or functional assay
[41] = biological target: HIV-1 Env of isolate 93UG077 (HIV-1); test: cell-based or functional assay
[42] = biological target: HIV-1 Env of isolate MGRM-A-008 (HIV-1); test: cell-based or functional assay

Binder	Fold IC50 increase relative to wild-type [1]	Fold IC50 increase relative to wild-type [2]	Fold IC50 increase relative to wild-type [3]	Median IC50 against viruses neutralized with an IC50 <50 µg/ml [5]	Fold IC50 increase relative to wild-type [7]	Fold IC50 increase relative to wild-type [8]	Fold IC50 increase relative to wild-type [9]	Median IC50 against viruses neutralized with an IC50 <50 µg/ml [10]	Median IC50 against viruses neutralized with an IC50 <50 µg/ml [11]	Fold IC50 increase relative to wild-type [13]	Fold IC50 increase relative to wild-type [14]	Fold IC50 increase relative to wild-type [15]	Fold IC50 increase relative to wild-type [16]	Fold IC50 increase relative to wild-type [18]	Fold IC50 increase relative to wild-type [19]	Fold IC50 increase relative to wild-type [20]	Fold IC50 increase relative to wild-type [21]	Fold IC50 increase relative to wild-type [22]	Fold IC50 increase relative to wild-type [23]	Fold IC50 increase relative to wild-type [24]	also measured
B1	3.9 fold	> 250 fold	1.2 fold	0.21 µg/mL	0.4 fold	0.3 fold	0.3 fold	0.15 µg/mL	0.17 µg/mL	0.5 fold	0.6 fold	0.8 fold	1.3 fold	0.9 fold	5 fold	0.36 fold	0.3 fold	0.7 fold	0.1 fold	0.8 fold	IC50 neutralization [4]: 6.79 µg/mL; IC50 neutralization [6]: 0.104 µg/mL; IC50 neutralization [12]: > 10 µg/mL; IC50 neutralization [17]: 0.0183 µg/mL; Fold IC50 increase relative to wild-type [25]: > 250 fold; Fold IC50 increase relative to wild-type [26]: 0.4 fold; Fold IC50 increase relative to wild-type [27]: 0.6 fold; Fold IC50 increase relative to wild-type [28]: 0.1 fold; Fold IC50 increase relative to wild-type [29]: 1.4 fold; Fold IC50 increase relative to wild-type [30]: > 30 fold; Primary Neutralization Index (B cell culture well 5343 B8) [31]: 6.5; Primary Neutralization Index (B cell culture well 5344 E16) [31]: 3.6; Fold IC50 increase relative to wild-type [32]: 1.5 fold; Fold IC50 increase relative to wild-type [33]: 0.6 fold; Median IC50 against viruses neutralized with an IC50 <50 µg/ml [34]: 0.05 µg/mL; EC50 [35]: 0.1 µg/mL; EC50 [36]: 0.1 µg/mL
B2	2.5 fold	1.1 fold	1 fold	0.65 µg/mL	0.6 fold	6 fold	0.8 fold	0.06 µg/mL	0.08 µg/mL	1.3 fold	1.6 fold	3 fold	0.8 fold	1.1 fold	2.1 fold	0.2 fold	3 fold	0.4 fold	2 fold	1.4 fold	IC50 (µg/mL), pseudovirus neutralization [37]: > 50 µg/mL; IC50 (µg/mL), pseudovirus neutralization [38]: > 50 µg/mL; IC50 (µg/mL), pseudovirus neutralization [39]: 0.013 µg/mL; IC50 (µg/mL), pseudovirus neutralization [40]: 0.105 µg/mL; Fold IC50 increase relative to wild-type [25]: 0.5 fold; Fold IC50 increase relative to wild-type [27]: 1 fold; IC50 (µg/mL), pseudovirus neutralization [41]: 0.055 µg/mL; Fold IC50 increase relative to wild-type [28]: 0.5 fold; Fold IC50 increase relative to wild-type [29]: 1.8 fold; Fold IC50 increase relative to wild-type [30]: 1.7 fold; Polyclonal Transfectant Neutralization Index (well 5145 B14) [31]: 2.62; Primary Neutralization Index (B cell culture well 5145 B14) [31]: 86.9; Fold IC50 increase relative to wild-type [32]: 4 fold; IC50 (µg/mL), pseudovirus neutralization [42]: > 50 µg/mL; Fold IC50 increase relative to wild-type [33]: 1.7 fold; Median IC50 against viruses neutralized with an IC50 <50 µg/ml [34]: 0.55 µg/mL; EC50 [35]: 0.7 µg/mL; EC50 [36]: 0.1 µg/mL
